test: soluble on expression in E. coli; label from the status in PepcDB or PDB records

| Sequence | soluble on expression in E. coli |
| --- | --- |
| MSKQQEQDTPSFGEIRQRLQAGEDFDLAHRLQEREYEMYYNHNRNVNGTIVGDRKKTREEQIAEDEHAASLRRLGHAERSMSDEEYARQLQEEMDRLDASIQMDKEAQLREDARMAWLLQQESSATPAPSRHSGDLISFEDQPQQSSNTTTSSSCQSANNS | not soluble |
| MARSFKVLSPTAILGYGFPEESFRKAMAESPDLIAVDAGSSDPGPHYLGAGKPFTDRAGVKRDLRYMITAGVQNNIPVVIGTAGGSGAAPHLEWCREIIHEIAREEHLSFSMALIPADVDKAIVHQALDNGKITALDFVPPLTHDAIDESTYIVAQMGIEPFQRALKERAQVVLGGRAYDPACFAALPIMQGFDEGLALHCGKILECAAIAATPGSGSDCAMGIIDDNGFTLKTFNPKRKFTETSAAAHTLYEKSDPYFLPGPGGVLNLKGCTFKAVNDGEVYVSGSKHEETPYALKLEGARRVGFRCLTIAGTRDPIMIAGIDKIIDEVKTSVSRNLSLDDDSIRINFHLYGKNGVMGDHEPMQTAGHELGIVLDVVAPTQEIANSVCSLVRSTMLHYGYENRIATAGNLAFPFSPSDIQGGPVYEFSIYHLIEANDALRFDFHIEQVTPEGVQA | soluble |
| MPSKLALIQELPDRIQTAVEAAMGMSYQDAPNNVRRDLDNLHACLNKAKLTVSRMVTSLLEKPSVVAYLEGKA | soluble |
| MSLIVLKFGGSSIKYDFEEATNLALSLFEDDAVIVVVSAIKGITDKLILYSQTLDKTIATKIASEYVSFAKSHGIDPVILKPYLDELFNLPDLPEEALRDYILSLGEVLSAVIFSASIGGKFVPSWDIFEAEGNFGNAFIDIKSSKKKFKRVFEVLEEGYIPVIPGFTAGKDGYILTLGRGGSDYSGVAAGVLGKAKLVAIMSDVEGIYTADPKLVPSARLIPYVSYDEIIISSKHGMRALQWKAAELAKEYKIPVLFGRTRNWRMGTLMSERSSGMPLMTYKDGLLLVNVTEEIKYPIIAEGPFWKLYKVSQEEGIHLMRELHTKLFQPSFIQYSVYKSSENGQKTQEFNEKISIEQGENRKIYYSEEEVNLPGEGHHHHHH | soluble |
| MGSDKIHHHHHHMLTTLAIFNYRSLREIVLPLGQLNLITGANGSGKSNLYKALRLLAQTAQGGVVNALAQEGGLDSSFWAGPENFTKSMLAGDTAIEATVRQAPKRLKLGFAGEDFSYLIELGLPEPDATTLFGLDPQIKREAIWNGPKYRPSTVLVERRGPMVKSRSADGKGWIILGAHLQTGDSLFTELADPERCPEVLKLRDSIRAWRFYDHFRTDAEAPARRPQLGTATPVLHHDGRDLASAIQTIFEIGDKSAFDHAVSDAFPGAKVRIEPQAGGILVLAFHQHGLLRPLNASELSDGTLRYLLLIAALLTPRPPELMVLNEPETSLHPDLLPALARLIAKVSEECQLWVVSHANRLINALSQFEHCNTLALDKTLGQTQIQGQDLLNTPSWLWQNR | not soluble |
| MKGRTMNKPFITQAQLALYKYQPSSKYFGQSMAVIAQSEFVEFAKINKSENVIDCFSFFWNRRIKHDIWLISFSDNSEMVIKESLKDGHKIYKFEFCEIVDNCNFDDVFV | not soluble |
| MAHHHHHHMGKALGMQRAKAQRLRKVVLRGSAAGSRSFLLYAQPTPNMLSETSGAVVDMCTDEFSIDIKEPSPEDAIVVASLTLRKKKMQKWREEKRTAAKPPKRAQSGASTCTLNFNKQETRWPLKISEC | not soluble |
| MKTTLIISTYNRPEALSVCLDSVRFQTVMPDEVIVGDDGSTSETKDLIESFKKDFPVPLIHLWQEDKGFRLAMMRNKSVAAATGDYIIEIDGDIFLHNKFVEDHKRLAKPGHYLRGTRVNLGQKLTEEICKSKVNRRIYPWTIGIQNRAETAIHSTPVSNFFADRYKKNVSSGLGCNMSFWRSDFLAINGYDEFFEGWGKEDDDLTHRLQRKGCKKRSLRFAGIVYHLWHGHESMESDQKNAEYFRKNNEKNIVYCENGVSKYLKQELEHHHHHH | soluble |
| MTGVVTASKGLNVRKEANTSSQIIGILNSGESVEIIGEENGFYKITYKGQEAYASKNYINIFDGNSLEHHHHHH | not soluble |
| MFSPVKSTKVYEQIIEQFKIMIANGTLKKGDKLPSERELVSQLGVSRASIREALSALQMIGFVEARHGEGNFIRENFEESLIDPFLLIFMLNGSNKEQILELRRIIEVETAALAAKKITDEEVKELEVCLENLTEAENETLKGKYDKKFHYNIAKASKNILIVNMLNAVSSLMDSFISEARGRILMVEDNKNVLMKQHRSMLEALKNHDSKAASNAMSEHLDLIYEYIIKK | not soluble |
| MGSDKIHHHHHHMRRLPPLNALQIFATVARHRSFTRAADALCVTQGAISRQIQSLEAHYGFALFMRHARGLTLTVEGEQLLPVVVESFARIEDISLKLTRQRTDLALKVPTCVMRWVLPRIMRFQREHPDLHVQMTTTWRHDVDFQSEPFDAAIVYGMSPGPDVAAVPLFDERLTPVCAPDLLEGRPLARVEDLACHTLLHPTRDHRDWRRWLDYAGAAGVDPDRGPSFDSLDLATSAATQGFGVALGDLTLSEEDFAARRLAMPLDIVQRTGARYYFVYPESVAQQQKIQRFSAWLDANRD | not soluble |
| MTALTEGAKLFEKEIPYITELEGDVEGMKFIIKGEGTGDATTGTIKAKYICTTGDLPVPWATILSSLSYGVFCFAKYPRHIADFFKSTQPDGYSQDRIISFDNDGQYDVKAKVTYENGTLYNRVTVKGTGFKSNGNILGMRVLYHSPPHAVYILPDRKNGGMKIEYNKAFDVMGGGHQMARHAQFNKPLGAWEEDYPLYHHLTVWTSFGKDPDDDETDHLTIVEVIKAVDLETYR | soluble |
| MGSDKIHHHHHHMPQDRPTAAQLWSGEISFFSLDTDLIQSAGYSFDAGVLNQLPQVFPKTMQLLLTEVTAREIVSHLMKSVTQAMGEFRKGSDTLKRSVGIDMDQIDKLFEALSVVSSAEAVFRERVDSYAERCRGEVLPIGGGDMMPRIFERYFAGLPPFGARKDKKAEFPDAMSLLLLEDYARDHGTRGVVASRDEGWSEFAGKSEYLYCVKSLDALIALFEATGEHAKTLADRIASAVEDENSFVRAALLDGFRTHIHESSWNVENVYSGVVPRVEAATCEADVISHVLQSDRTKVWNLEEDKSVWVVELTASLTVEVQIDVTFYVWDAIDREEMELDTQTVRRKTNIEVKAFLTVGGAETEVDPAKWDVGVEIAPGQYEIDVGEVEPEYSGD | not soluble |
| ADVHDKATRSKNMRAIATRDTAIEKRLASLLTGQGLAFRVQDASLPGRPDFVVDEYRCVIFTHGCFWHHHHCYLFKVPATRTEFWLEKIGKNVERDRRDISRLQELGWRVLIVWECALRGREKLTDEALTERLEEWICGEGASAQIDTQGIHLLA | soluble |
| MGSDKIHHHHHHMKEQNNIPTSKVERATKFVQTGAKIGGNYIKHYAKKAFNPELTKEQLHEDNSKDVYETLSQLKGSALKVAQMLSQDKNMLPQAYVDKFTMAQYSAPPLSYPLVVKTFQKYFGKSPESMFDTFERNASNAASIGQVHKATKDGKVFAVKIQYPGVAESVSSDLKLVKPFALRLMNMKEKDLDMYMDEVESKLIEETDYELELRRSNEISTQCAHITGLVFPAYYPEYSSKRILTMDWLEGLHMKEFLATNPSQEIRNQIGQLLWDFYDFQMHQLRTVHADPHPGNFLMRSNGSLGVIDFGCVKEIPEEFYTEYFKLLNKEVIEDKTELLKTFERLNFFDAEDTALQREIFFDLFCEMTHLLGLPFYSETFDFSDDSYFKRIYDFGEHISNVKEIKDARQARGSRHGIYINRTYFGLYNLLNQLGANVRTKSYGEVAIEV | not soluble |
| MTDTDTQADRFEQMMWQAVDKLFEQHDGKLESMDGREQELVLIWRTEADIGNGSILQFVCNWGFPAAEKTCSVLKKIGAVHSAMLIHRAADALDKEIRRLQSEGKNLKEMWDITSRQQNRLTAEQSG | not soluble |
| MAIPSRSPLASRALSFLGALSLLTFAATPVLAESTPTAAPPQFAVESPKAASSLLLSVAHAGKRLVAVGDRGHILLSDDDGKTWTQAKVPTRQLLTSVFFVNERKGWAVGHDAQILVSDDAGSTWARQFEDLGREAPLLDIWFADEQHGLAVGAYGALLETRDGGQHWEDVSERLDNEDQFHLNAIAAVKDNGLLVVGEAGSLFRSKDWGATWEKLEGPYEGSLFGAIGTADAGGVLVYGLRGHLFRSADFGDSWEEIPLKAASGDLEFGLSDGALLADGRIVVVGHGGSVLESTDGGRSFSVFNRPDRLSLAGVSATGDGHLILVGQGGVHLAAANGAALEQQQLEHHHHHH | soluble |
| MHPPIKIQTILLFILTTVHCSAKRLPQIYWNSTNPLVERYAAIGDTLDIVCPFFDENSDELTEQSIIYRVTEEEYENCERRSKAKELGRCTQPYQEEKLKVAFRLMSPNPSGLDYRPGVTYYFISTSTGSRKGLYNEQGGLCASHNLKMVIHITDRNGDIGPHHHRHHHKKTTTTTTTSTSTSTPKTIPPVVEMDSSAEKLWEQFYEKVMPIDNTWPEITRGERVTLYQGNKKDEYEQVPAEVVDFEIHEIGDVESLYSSSGRLRYVLLLPALLLLRIF | not soluble |
| MPDADVNDFELVDVDQKAADKAIKDLGVKATIDEVCTVGEEGYVVTATDKEGYGGDIKITVGITADGTINGISILSISETAGLGMRATEPAFYEQYQGKQAEKFVVSKDGGDGEPIDALSGATITSRAVTGAVNAALGYYQNAFLEHHHHHH | soluble |
| TLPKPFIWAEPHFMVPKEKQVTICCQGNYGAVEYQLHFEGSLFAVDRPKPPERINKVKFYIPDMNSRMAGQYSCIYRVGELWSEPSNLLDLVVTEMYDTPTLSVHPGPEVISGEKVTFYCRLDTATSMFLLLKEGRSSHVQRGYGKVQAEFPLGPVTTAHRGTYRCFGSYNNHAWSFPSEPVKLLVTG | soluble |
| DTTQNLMIEGDNLEVLKLLQKSYAGKIKLIYIDPPYNTGKDFVYPDDFKDNIRNYLELTGQVEGGRKISSNTEASGRFHTDWLNMMYPRLKIARQLLSPTGVIAVHIDEHELEALVIVLRDLFGEENELGVTIWDKRNPKGDSRGIAYQHESLVLFARDAEELFARSPVRRAKRNAERMLNAASRFVTECGSIAEARAAYRSWVKSQSTLSGGESMYDKLSETGRVYRLVSMAWPNKKRAPADYFVPLKHPITGKDCPIPERGWRNPPATMKKLLEDGLIEFGPDEIMQPQRIYFLDENMYENVPSIVPFGGSDDELLKELSVPFEQPKPVDFSVQVISWCSSKDEIVMDFFAGSGTTGHAVMAQNAADGGNRRYILVQLPEPLDPENKDQKVAAEFCDKLGKPRTIAELTKERLRRAAKKIKEENPLFAGDLGFRVFKLDSSNIRA | not soluble |
| MAHHHHHHMSFHPRDAFILHQEYIQRLNEGDEVDTSAEQKVELNLQRHADSESAATVTFSHEDHTLGNPLRHVIMEDPSVTSAGYAIPHPLEAKMQLHVQSSEYAVETVAKGLERLAAICDETLKSFNACVEAISAEDPEGH | not soluble |
